The text below walks through data of patent publication US20210324417A1 (RESEARCH INSTITUTE AT NATIONWIDE CHILDREN S HOSPITAL, published 2021).

In the experiment the target is neuropilin-1 (NRP1) (mouse (endogenous protein of the mouse …, UniProt P97333 22-923)). The experiment can be described thus: co-immunoprecipitation with anti-NRP1 antibody from NSC-34 lysates, anti-V5 Western blot. On the procedure:
Cells were grown to 70% confluency before transfection. A human wild-type, P234KY, or ΔETAQ GARS cDNA was cloned into the pcDNA6 plasmid to express GARS in-frame with a V5 tag. Transfections were performed using Lipofectamine 2000 (Invitrogen) according to the manufacturer's instruction. For cell lysate preparations, NSC-34 cells (36 hours after transfection) were washed twice in phosphate-buffered saline (PBS), scraped into PBS, pelleted, and resuspended in Pierce IP Lysis Buffer (Thermo Scientific) for 30 min and centrifuged for 7 min at 12,000×g; the insoluble fraction was discarded. Protein G beads (Invitrogen) were pre-incubated with anti-NRP1 antibody (Abcam) or rabbit IgG (Cell signaling) for 30 min before mixed with the cell lysates for overnight. […] Wild-type and mutant GARS proteins were detected using mouse monoclonal V5 antibody purchased from Invitrogen. NRP1 was detected by utilizing the same antibody for co-immunoprecipitation. […]
After immunoprecipitation with an anti-NRP1 antibody, proteins were subjected to Western blot analysis using an anti-V5 antibody. […] Nevertheless, no interaction between ΔETAQ GARS and NRP1 was detected in unbiased mass spectrometry analyses of proteins immuno-precipitated from mouse neuroblastoma (MN1) cells expressing FLAG-tagged wild-type or V5-tagged ΔETAQ GARS.

B1: V5-tagged wild-type human GARS (glycyl-tRNA synthetase) (enzyme, UniProt P41250-2 1-685, looked up)
chain: MDGAGAEEVLAPLRLAVRQQGDLVRKLKEDKAPQVDVDKAVAELKARKRVLEAKELALQPKDDIVDRAKMEDTLKRRFFYDQAFAIYGGVSGLYDFGPVGCALKNNIIQTWRQHFIQEEQILEIDCTMLTPEPVLKTSGHVDKFADFMVKDVKNGECFRADHLLKAHLQKLMSDKKCSVEKKSEMESVLAQLDNYGQQELADLFVNYNVKSPITGNDLSPPVSFNLMFKTFIGPGGNMPGYLRPETAQGIFLNFKRLLEFNQGKLPFAAAQIGNSFRNEISPRSGLIRVREFTMAEIEHFVDPSEKDHPKFQNVADLHLYLYSAKAQVSGQSARKMRLGDAVEQGVINNTVLGYFIGRIYLYLTKVGISPDKLRFRQHMENEMAHYACDCWDAESKTSYGWIEIVGCADRSCYDLSCHARATKVPLVAEKPLKEPKTVNVVQFEPSKGAIGKAYKKDAKLVMEYLAICDECYITEMEMLLNEKGEFTIETEGKTFQLTKDMINVKRFQKTLYVEEVVPNVIEPSFGLGRIMYTVFEHTFHVREGDEQRTFFSFPAVVAPFKCSVLPLSQNQEFMPFVKELSEALTRHGVSHKVDDSSGSIGRRYARTDEIGVAFGVTIDFDTVNKTPHTATLRDRDSMRQIRAEISELPSIVQDLANGNITWADVEARYPLFEGQETGKKETIEE
notes: Expressed by transfection in mouse NSC-34 cells and tested from the cell lysate; also called wild-type GARS; WT GARS; not shown: V5 tag expressed in-frame from pcDNA6
Take B1: the binding result was “no binding”.
